In US20200223915A1 (OSAKA UNIVERSITY, published 2020):

What was measured:
Assay in all cases: FACS on Claudin-expressing cells
[1] = target: T1, wild-type human Claudin 1 protein (human, UniProt O95832 1-211)
T1 construct: Expressed on cells by retrovirus; also called hCLDN1
T1 sequence: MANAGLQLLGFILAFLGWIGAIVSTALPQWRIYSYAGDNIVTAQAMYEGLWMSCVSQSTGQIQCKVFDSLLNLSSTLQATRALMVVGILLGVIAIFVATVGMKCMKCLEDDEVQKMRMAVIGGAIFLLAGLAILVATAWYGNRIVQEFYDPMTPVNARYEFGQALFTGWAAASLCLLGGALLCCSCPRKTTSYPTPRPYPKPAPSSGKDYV
Description: (§1) The cells were washed three times with 0.2% BSA-TBS, and then mixed with 100 μL of a secondary antibody solution (FITC conjugated goat anti-mouse IgG+IgM in 1% BSA-PBS (1:400)), followed by a reaction at 4° C. for 1 hour. The cells were washed with 0.2% BSA-TBS, and FACS analysis (FACS caliber, BD Bioscience) was performed.

[2] = target: T2, wild-type human Claudin 2 protein (human, UniProt P57739 1-230)
T2 construct: Expressed on cells by retrovirus; Wording leaves open whether the entry is the protein or the DNA; also called hCLDN2
T2 sequence: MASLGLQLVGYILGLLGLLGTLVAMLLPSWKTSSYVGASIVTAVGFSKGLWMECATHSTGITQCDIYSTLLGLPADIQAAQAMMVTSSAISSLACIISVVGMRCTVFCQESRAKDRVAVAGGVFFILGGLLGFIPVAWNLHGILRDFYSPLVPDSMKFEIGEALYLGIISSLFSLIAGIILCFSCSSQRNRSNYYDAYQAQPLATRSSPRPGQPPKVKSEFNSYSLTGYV
Description: as §1

[3] = target: T3, wild-type human Claudin 3 protein (human, UniProt O15551 1-220)
T3 construct: Expressed on cells by retrovirus; Wording leaves open whether the entry is the protein or the DNA; also called hCLDN3
T3 sequence: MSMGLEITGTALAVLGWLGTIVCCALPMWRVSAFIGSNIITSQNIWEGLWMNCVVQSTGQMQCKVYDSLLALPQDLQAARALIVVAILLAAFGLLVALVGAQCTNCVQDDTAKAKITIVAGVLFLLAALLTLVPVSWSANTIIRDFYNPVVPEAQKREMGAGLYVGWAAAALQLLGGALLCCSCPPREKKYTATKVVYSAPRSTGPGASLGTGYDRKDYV
Description: as §1

[4] = target: T4, wild-type human Claudin 4 protein (human, UniProt O14493 1-209)
T4 construct: Expressed on cells by retrovirus; Wording leaves open whether the entry is the protein or the DNA; also called hCLDN4
T4 sequence: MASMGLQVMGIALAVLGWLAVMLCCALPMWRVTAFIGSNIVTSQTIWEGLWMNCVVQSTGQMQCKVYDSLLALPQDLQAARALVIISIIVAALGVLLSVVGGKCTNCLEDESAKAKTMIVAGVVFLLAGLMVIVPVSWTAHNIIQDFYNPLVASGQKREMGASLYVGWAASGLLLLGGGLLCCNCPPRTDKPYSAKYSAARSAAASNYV
Description: as §1

[5] = target: T5, wild-type human Claudin 6 protein (human, UniProt P56747 1-220)
T5 construct: Expressed on cells by retrovirus; Wording leaves open whether the entry is the protein or the DNA; also called hCLDN6
T5 sequence: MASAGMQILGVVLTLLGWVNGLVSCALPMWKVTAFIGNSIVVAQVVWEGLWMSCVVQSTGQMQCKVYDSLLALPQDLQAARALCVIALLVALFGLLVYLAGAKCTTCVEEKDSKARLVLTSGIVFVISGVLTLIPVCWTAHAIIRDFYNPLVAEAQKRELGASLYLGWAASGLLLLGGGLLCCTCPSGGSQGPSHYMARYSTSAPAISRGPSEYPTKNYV
Description: as §1

[6] = target: T6, wild-type human Claudin 9 protein (human, UniProt O95484 1-217)
T6 construct: Expressed on cells by retrovirus; Wording leaves open whether the entry is the protein or the DNA; also called hCLDN9
T6 sequence: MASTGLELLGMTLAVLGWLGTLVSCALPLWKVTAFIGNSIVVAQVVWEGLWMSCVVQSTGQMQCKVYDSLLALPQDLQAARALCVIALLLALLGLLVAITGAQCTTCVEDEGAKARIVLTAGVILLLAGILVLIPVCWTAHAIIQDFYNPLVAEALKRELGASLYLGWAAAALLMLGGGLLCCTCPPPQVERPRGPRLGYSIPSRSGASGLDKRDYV
Description: as §1

[7] = target: T7, wild-type mouse Claudin 1 protein (mouse, UniProt O88551 1-211)
T7 construct: Expressed on cells by retrovirus; Wording leaves open whether the entry is the protein or the DNA; also called mCLDN1
T7 sequence: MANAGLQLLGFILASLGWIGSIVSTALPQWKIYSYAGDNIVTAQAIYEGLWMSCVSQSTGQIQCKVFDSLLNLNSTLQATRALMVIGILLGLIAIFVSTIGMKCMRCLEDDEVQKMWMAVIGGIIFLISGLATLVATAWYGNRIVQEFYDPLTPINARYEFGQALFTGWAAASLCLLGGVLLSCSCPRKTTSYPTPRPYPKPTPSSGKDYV
Description: as §1

[8] = target: T8, wild-type mouse Claudin 2 protein (mouse, UniProt O88552 1-230)
T8 construct: Expressed on cells by retrovirus; Wording leaves open whether the entry is the protein or the DNA; also called mCLDN2
T8 sequence: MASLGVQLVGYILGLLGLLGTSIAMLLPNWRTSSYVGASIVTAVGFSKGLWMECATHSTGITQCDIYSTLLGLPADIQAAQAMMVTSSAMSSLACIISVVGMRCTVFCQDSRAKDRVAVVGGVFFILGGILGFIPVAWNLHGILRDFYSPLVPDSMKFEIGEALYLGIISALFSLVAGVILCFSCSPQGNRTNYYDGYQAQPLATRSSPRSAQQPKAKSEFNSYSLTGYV
Description: as §1

[9] = target: T9, wild-type mouse Claudin 4 protein (mouse, UniProt O35054 1-210)
T9 construct: Expressed on cells by retrovirus; Wording leaves open whether the entry is the protein or the DNA; also called mCLDN4
T9 sequence: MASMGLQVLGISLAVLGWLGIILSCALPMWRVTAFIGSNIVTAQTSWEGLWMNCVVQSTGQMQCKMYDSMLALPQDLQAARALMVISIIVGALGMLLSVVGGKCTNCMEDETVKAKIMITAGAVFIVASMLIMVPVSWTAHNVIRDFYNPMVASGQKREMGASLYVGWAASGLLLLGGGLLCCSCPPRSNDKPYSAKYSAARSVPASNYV
Description: as §1

Measured: binding result

B1: antibody 2B12 (antibody, IgG2a, V domains shown)
VH: QVQLQQSGAELARPGASVKLSCKASGYTFTRFGMSWVKQRTGQGLEWIGEIYPGSGDTYYSENFKGKATLTADKSSGTAYMELRSLTSEDSAVYFCARWGIYYGNPYAMDYWGQGTSVTVSS
VL: DIVMTQAAPSVPVTPGESVSISCRSSKSLLHSNGNTYLYWFLQRPGQSPQLLIYRMSNLASGVPDRFSGSGSGTAFTLRISRVEAEDVGVYYCLQHLEYPFTFGSGTKLEIKR
notes: also called antibody A
no binding (tested: 10 µg/mL): all assays above

B2: antibody 2B1 (antibody, IgG2a, V domains shown)
VH: QVQLQQPGAELVKPGASVKLSCKASGYTFTTFWIHWVKQRPGRGLEWIGRIAPYSGGTTYNEKFKSKATLTVDRPSTTAYMQLISLTSEDSAVYYCARWDFTYGSNLDYWGQGTTLTVSS
VL: DIVMTQSQKFMSTSVGDRVSIPCKASQNVRTAVAWYQQKPGQSPKALIYLASNRHTGVPDRFTGSGSGTDFTLTISNVQSEDLADYFCLGHWDYPYTFGGGTKLEIKR
notes: also called antibody B
no binding (tested: 10 µg/mL): all assays above
